This passage reports Kd and IC50 results from the Immune Epitope Database (IEDB).

Test [1] addresses HLA-A*03:01. Description: IEDB peptide-MHC binding, purified MHC/competitive/fluorescence; filed as Kd, often an IC50 or EC50 that approximates it; ≥ and ≤ were set here for values at or beyond the usual limits of such assays.
Test [2] concerns the target HLA-B*53:01. Description: IEDB peptide-MHC binding, purified MHC/competitive/radioactivity; filed as Kd, often an IC50 or EC50 that approximates it; ≥ and ≤ were set here for values at or beyond the usual limits of such assays.
Test [3] concerns the target HLA-B*35:01. The test is described as above.
Test [4] addresses HLA-B*54:01. Described as above.
Test [5] addresses HLA-B*07:02. The test is described as above.
The target in test [6] is HLA-B*51:01. The test is described as above.
The target in test [7] is HLA-A*03:01. Description: IEDB peptide-MHC binding, purified MHC/direct/fluorescence; filed as Kd, often an IC50 or EC50 that approximates it; ≥ and ≤ were set here for values at or beyond the usual limits of such assays.
Test [8] deals with HLA-A*31:01. Described as above.
The target in test [9] is HLA-A*02:01. The description is as above.
The target of test [10] is HLA-B*27:05. The description is as above.
Test [11] has as its target HLA-A*69:01. The description is as above.
Test [12] addresses HLA-A*01:01. The test is described as above.
Test [13] addresses HLA-B*40:01. The test is described as above.
In test [14] the target is HLA-A*24:03. The description is as above. The settings on record: source organism: Vibrio cholerae.
For test [15], the target named is HLA-A*26:01. Described as above.
In test [16] the target is HLA-B*58:01. The test is described as above.
The target in test [17] is HLA-B*07:02. The test is described as above.
The target in test [18] is HLA-B*08:01. Described as above.
The target in test [19] is HLA-A*11:01. The description is as above.
Test [20] addresses HLA-B*15:01. The description is as above.
Test [21] addresses HLA-B*44:02. The test is described as above.
Test [22] has as its target HLA-A*24:02. Description: IEDB peptide-MHC binding, purified MHC/competitive/fluorescence; ≥ and ≤ were set here for values at or beyond the usual limits of such assays.
Setting [23] is: source organism: Triticum aestivum.
[24] abbreviates: source organism: Vaccinia virus WR.
Where [25] appears, read: source organism: Vibrio cholerae.
Setting [26] is: source organism: SARS coronavirus Tor2.
Setting [27] is: source organism: Coxiella burnetii.

In general, Kd refers to the constant that tells how readily two partners part at equilibrium. QLAFFVAGH registered a Kd in test [1] (source organism: Yersinia pestis Antiqua) of 0.199 µM.
As for QPSSQVSF, the Kd is not below 38.3 µM in test [2] (setting [23]); not below 23.9 µM in test [3] (setting [23]); not below 87.7 µM in test [4] (setting [23]); not below 26.2 µM in test [5] (setting [23]); 2.96 µM in test [6] (setting [23]).
As for RLSVKTFVH, the Kd in test [1] (source organism: Coxiella burnetii RSA 493) is 0.0276 µM.
In test [1] (source organism: Francisella tularensis subsp. tularensis FSC198), RLSVKTFVK came in with a Kd of 0.0253 µM.
As for RPRFDDAYNI, the Kd is 0.0327 µM in test [2] (setting [24]); 15 µM in test [3] (setting [24]); 2.38 µM in test [4] (setting [24]); 0.00526 µM in test [5] (setting [24]); 3.41 µM in test [6] (setting [24]).
As to RYDYANLCQ, the Kd in test [7] (setting [25]), in test [8] (setting [25]), in [9] (setting [25]), in test [10] (setting [25]), in test [11] (setting [25]) and in [12] (setting [25]) was not below 20 µM throughout. For the same sequence, the Kd in test [13] (setting [25]), in test [14], in test [15] (setting [25]), in test [16] (setting [25]), in [17] (setting [25]) and in [18] (setting [25]) was not below 20 µM throughout. Moreover, the equilibrium dissociation constant (Kd) in [19] (setting [25]), in test [20] (setting [25]) and in test [21] (setting [25]) was not below 20 µM throughout.
In the case of SPLFLIVAA, the Kd in [2] (setting [26]) was not below 44.7 µM; in [3] (setting [26]), 1.04 µM; in test [4] (setting [26]), 0.00252 µM; in [5] (setting [26]), 0.481 µM; in test [6] (setting [26]) it was 12.1 µM.
Broadly, the IC50 is the midpoint of a concentration-inhibition curve. Regarding SYRNKPSIA, the IC50 in [22] (source organism: Vaccinia virus) is 43.8 µM.
TLYDRYLIK had a Kd in test [1] (source organism: Campylobacter lari RM2100) of 0.0109 µM.
Turning to TPEQKAYVPA, the Kd in [2] (setting [24]) was not below 45.2 µM; in [3] (setting [24]) it was 11 µM; in [4] (setting [24]), 0.0133 µM; in test [5] (setting [24]) it was 1.23 µM; in test [6] (setting [24]), not below 55.2 µM.
Consider VPEFAKQYVL, for which the Kd in test [2] (setting [24]) came out at 0.0852 µM; in [3] (setting [24]) it was 0.0307 µM; in test [4] (setting [24]) it was 1.86 µM; in test [5] (setting [24]), 0.0258 µM; in [6] (setting [24]), 1.55 µM.
With VYKLDISEA, the IC50 in test [22] (source organism: Zaire ebolavirus) turned out to be 44 µM. That is a double-digit micromolar value.
On to YHFDPVHHL, for which the Kd in test [7] (setting [27]), in [8] (setting [27]), in test [9] (setting [27]), in test [10] (setting [27]), in test [11] (setting [27]) and in [12] (setting [27]) was not below 20 µM in each case. The Kd in [13] (setting [27]), in test [15] (setting [27]), in test [16] (setting [27]), in [17] (setting [27]), in [18] (setting [27]) and in [19] (setting [27]) was not below 20 µM throughout. The Kd in test [20] (setting [27]) and in test [21] (setting [27]) was not below 20 µM in each case.
As for YPFYVSPTEM, the Kd in [2] (setting [24]) is 0.446 µM; in test [3] (setting [24]), 0.00632 µM; in test [4] (setting [24]) it was 0.082 µM; in [5] (setting [24]) it was 2.06 µM; in test [6] (setting [24]), 1.55 µM.
Regarding YPQPQLPY, the equilibrium dissociation constant (Kd) in [2] (setting [23]) was 1.34 µM; in [3] (setting [23]) it was 0.249 µM; in test [4] (setting [23]) it was not below 54.5 µM; in test [5] (setting [23]), not below 22.6 µM; in [6] (setting [23]), 10.9 µM.
